Data reported in the supplement of paper PMC9170038.

Tested on: K4 kissing-loop RNA reporter
Experiment: apparent KD of K4 kissing-loop reporter; higher = weaker reporter binding
Details: Eterna round: R107
Protocol: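 RNA-MaP round R107: designed RNA switches with theophylline, tryptophan, arginine or FMN aptamers are transcribed on-chip within common flanks. They are titrated with a labelled K4 kissing-loop RNA reporter in RNA-MaP buffer (100 mM Tris pH 7.5, 80 mM KCl, 4 mM MgCl2), without ligand or with the indicated ligand. Median apparent KD per design.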

[1] = input ligand: theophylline 20 uM
[2] = input ligand: tryptophan 2.4 mM
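Note: bound reporter read as fluorescence of individual clusters on recovered sequencing chips by microscopy, with normalized cluster intensities fitted with a binding model.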

Row | Sequence | apparent KD of K4 kissing-loop reporter (input ligand: FMN 200 uM) [nM] | apparent KD of K4 kissing-loop reporter (input ligand: arginine 13.2 mM) [nM] | apparent KD of K4 kissing-loop reporter (input ligand: none) [nM] | apparent KD of K4 kissing-loop reporter [1] [nM] | apparent KD of K4 kissing-loop reporter [2] [nM]
1 | UCCUAGGCUCGAAAGAGCCUAGGAUGGACUCAGGAUAUCCGGAAACGGAGAAGGGAGUCACUAGUGAUGUUAGGGACUCCCUAAC | 302 | 97.7 | 110 | 123 | 109
2 | UCCUAGGCUCGAAAGAGCCUAGGAUUUACUCAGGAUAUCCGGAAACGGAGAAGGGAGUGACUAGUGAUGUUAGGGACUCCCUAAA | 144 | 80.8 | 95.5 | 108 | 90.6
3 | UCCUGCAAUCGACCACGAAAGUGGUUCGAUACCAGAGUCGAAAGACUCCCUUGGCAGCGAGUGAUGUUCGAGCAGGUAAAAUAAA | 438 | 436 | 567 | 467 | 472
4 | UCCUGCAAUCUGCCACGAAAGUGGGUUGAUACCAGAGUCGAAAGACUCCCUUGGCAGCGAGUGAUGUUCGUUGCAGGUGUUUAAA [MatMod 11 - Jieux - Exclusion - Theophylline A] | 197 | 172 | 186 | 217 | 174
5 | UCCUUUGUUGCCAGUGAUGUUGGACAGGAAGGAGCGGGCAUAAGCCCAGGUAGGUCGCCUGUCAACUUUCUUAUAGCCCUAAGGU [KL-XArg-A16] | 343 | 329 | 372 | 323 | 337
6 | UCGCGUAAUGGAAGGAGCGGUGCCAGUGAUGUUGGAUACUGCGUGUAUUAGGUCGGAGCGCACCAGGUAGGUCGCCAUUUGGUGG [Tigedies] | 328 | 276 | 236 | 271 | 369
7 | UCUCAGGAGUGAUGUUCCGUAGGUGGAAGGAAGGAUAUCUAAUGGCAGAGAAGGUCCAUCCUUGCUCGUAUCAGUGCCGGGAAGC [theeternabot_exclusion_KL_FMN_A_13] | 282 | 251 | 232 | 304 | 168
8 | UCUCCAGUGAUGUUGGAGACGGAUGAGGAAGGAGCGGGCACGUGCCCAGGUAGGUCGCCUCGAAAGCCCUGUAGCAUCGCGAAAC [Disoribe] | 281 | 188 | 203 | 193 | 149
9 | UCUGGAGCAUAUGAUACCAGCAGUGAGAGAGAGGAAGUAUAGUGAUGUUAUAUGAGAGAAUGCCCUUGGCAGCGUGUGUAGUGGG [SSTheophylB.M] | 155 | 146 | 119 | 94.5 | 107
10 | UCUGGUAUAUCUGAUACCAGAGUAUAGUAUCAAUUGAAUAUGGAGUGAUGUUCCAUACAACUCCCUUGGCAGCAGAUCUUCCUCU [Same State Theophylline B GF 23] | 145 | 206 | 188 | 193 | 124
11 | UGACACUCAACGGCCGCCACUACCGUCGCCGAAUUCCGCAGUGAUGUUGCGAUCCUCCGAUUGUCUAGGACCGGGUUGUUUGGGC [theeternabot_exclusion_KL_Trp_B_43] | 181 | 209 | 223 | 216 | 162
12 | UGACAUUGCUCAGAUACCAGACACGAGGAUCACCCGUGUGCCAAAACGUACUAAAUAAGUGUCCCUUGGCAGCUGAGCAAUGUCU [TheoBX 13] | 78.1 | 19.8 | 30.1 | 148 | 47.8
13 | UGACAUUGCUCAGAUACCAGACAUGAGCAUCAGCCAUGUACCAAGAAAACGUACAUAAAUGUCCCUUGGCAGCUGAGCAAUGUCU [TheoBX 10] | 83.5 | 39.8 | 59.9 | 89 | 63.8
14 | UGACAUUGCUCAGAUACCAGACAUGAGCAUCAGCCAUGUGCCAACGUACAAAUAAUAAAUGUCCCUUGGCAGCUGAGCAAUGUCU [TheoBX 15] | 67.4 | 25.8 | 48.2 | 64.6 | 59.9
15 | UGACAUUGCUCAGAUACCAGACUUGAGGAUCACCCAAGUGCCAAACGUACAAUAAUAAAAGUCCCUUGGCAGCUGAGCAAUGUCU [TheoBX 14] | 201 | 13.4 | 97.2 | 112 | 62.1
16 | UGACUACAAAAGGAAUAAUCCUAGUGAUGUUAGGAUAUGCUGAUAAGCAGAAGGAACGGAGAUCGAAGGAUCUCAUAUGUAGUCU [whbob_Ex_FMNA__2th193] | 170 | 92.1 | 86.9 | 117 | 89
17 | UGACUGGACUGAAGGAGCGCGAACUCCUAGUGAUGUUAGGAAAUACGAGACAAAGUCUCGACGCAGGUAGGUCGCAGUCUAGUCU [ArgBS 15 #SwitchBubble #StaticStem] | 110 | 86.6 | 107 | 104 | 98
18 | UGACUGGACUGAAGGAGCGCGCGAGACAAAGUCUCGAACUGCUAGUGAUGUUAGCAAAUAACGCAGGUAGGUCGCAGUCUAGUCU [ArgBS 11 #SwitchBubble #StaticStem #DoubleMagnet] | 135 | 100 | 137 | 92.3 | 124
19 | UGACUGGACUGAAGGAGCGCUAAACUCCUAGUGAUGUUAGGGAAACAAGACAAAGUCUUGAGGCAGGUAGGUCGCAGUCUAGUCU [FiskerMod 3 - Jieux - Same State - Arginine B] | 287 | 199 | 264 | 272 | 225
20 | UGACUGGACUGAAGGAGCGGGCGAGACAAAGUCUCGAACUGCUAGUGAUGUUAGCAAAUAACCCAGGUAGGUCGCAGUCUAGUCU | 122 | 100 | 120 | 109 | 110
21 | UGACUGGAUGGAAGGAGCGCUAAACUCCUAGUGAUGUUAGGGACAUGAGGCAAAGCCUUGAAGCAGGUAGGUCGCCAUCUAGUCU [FiskerMod 27 - Jieux - Same State - Arginine B] | 233 | 133 | 208 | 176 | 167

Row | Sequence | apparent KD of K4 kissing-loop reporter (input ligand: FMN 200 uM) [nM] | apparent KD of K4 kissing-loop reporter (input ligand: arginine 13.2 mM) [nM] | apparent KD of K4 kissing-loop reporter (input ligand: none) [nM] | apparent KD of K4 kissing-loop reporter [1] [nM] | apparent KD of K4 kissing-loop reporter [2] [nM]
22 | UGACUGGAUUGAAGGAGCGCUAAACUCCUAGUGAUGUUAGGGACACGAGACAAAGUCUCGAGGCAGGUAGGUCGCAAUCUAGUCU [FiskerMod 6 - Jieux - Same State - Arginine B] | 309 | 225 | 247 | 296 | 249
23 | UGAGGAGAGGGAAGGAGCGUGAAAGAGAAAGAAUAUAGUGAUGUUAUAUAGAAGAAAGAAUCACAGGUAGGUCGCCCGGAGGAGG [SSArgB.B] | 278 | 742 | 479 | 669 | 284
24 | UGAUACCAGACGGCCGCCACUACACCAGUCAAAGACUGGAUGUGAUGUUUGACCAGUGAUGUUGGUAGGACCGGGUCUGGUAUCU [TrypBX 5 #Palindromic #SwitchBubble #StaticStem] | 500 | 394 | 450 | 494 | 326
25 | UGAUACCAGACGGCCGCCACUAGGGCUAGCAAAGCUAGCAAGUGAUGUUUGAGGAGUGAUGUUCCUAGGACCGGGUCUGGUAUCU [TrypBX 1 #Palindromic #SwitchBubble #StaticStem] | 60.5 | 36.3 | 52.2 | 46.5 | 25.9
26 | UGAUACCAGACGGCCGCCACUCCCGCAGGUCAAAGACCUGCGAAGAAGGUUCUUCAGUGAUGUUGGAGGACCGGGUCUGGUAUCU [FiskerMod 22 - Jieux - Exclusion - Tryptophan B] | 217 | 168 | 207 | 213 | 369
27 | UGAUACCAGACGGCCGCCACUCCCGUAAGUCAAAGACUUACGAAGAGGGUUUUUCAGUGAUGUUGGAGGACCGGGUCUGGUAUCU [FiskerMod 17 - Jieux - Exclusion - Tryptophan B] | 516 | 420 | 545 | 506 | 824
28 | UGAUACCAGACUGAUACCAGCCAGUGAUGUUGGCUAAGCCAAAUAGGAGUCAAAGACUCCGGCCCUUGGCAGCAGUCUGGUAUCU [TheoBX 5 #SwitchBubble #StaticStem] | 127 | 117 | 122 | 124 | 127
29 | UGAUAGGACAGAAGGAGCGGAAGUGAUGUUUCCAAAUGGAAUAAGGUGUCAAAGACACCCUUCCAGGUAGGUCGCUGUCCUAUCU [ArgBX 15 #Palindromic #SwitchBubble #StaticStem] | 147 | 175 | 140 | 161 | 128
30 | UGAUAGGACAGAAGGAGCGGAGCUGGUCAAAGACCAGCAAUAACGUUGAAAGGAGUGAUGUUCCAGGUAGGUCGCUGUCCUAUCU [ArgBX 26 #SwitchBubble #StaticStem] | 121 | 130 | 120 | 163 | 93.7
31 | UGAUAGGACAGAAGGAGCGGGAGUGAUGUUCCCAAAGGAAGGUCUAGCAAAGCUGGACCCUCCCAGGUAGGUCGCUGUCCUAUCU [ArgBX 4 #SwitchBubble #StaticStem] | 129 | 123 | 124 | 155 | 118
32 | UGAUAGGACAGAAGGAGCGGGAGUGAUGUUCCCAAUAGGAGGUCUAGCAAAGCUGGACCCUCCCAGGUAGGUCGCUGUCCUAUCU [ArgBX 3 #SwitchBubble #StaticStem] | 102 | 115 | 96.1 | 115 | 108
33 | UGAUAGGACAGAAGGAGCGGUAGUGAUGUUACCAAAAGGGUAAGGUGUCAAAAGACACCCUACCAGGUAGGUCGCUGUCCUAUCU | 110 | 96 | 104 | 84.3 | 82.8
34 | UGAUAGGACAGAAGGAGCGGUAGUGAUGUUACCAAAAGUAUAAGGUGUCAAAAGACACCCUGCCAGGUAGGUCGCUGUCCUAUCU | 157 | 210 | 178 | 198 | 152
35 | UGAUCAACAUCUGAUACCAGUCGCUCGAGUAAUCAACCGUGGCUAGUGAUGUUGGCUUUUGACCCUUGGCAGCAGAAUCGUGUCA [theeternabot_sameState_KL_Theo_B_20] | 134 | 131 | 112 | 189 | 120
36 | UGAUCUCGGCAGUGAUGUUGCAUAUGAGAAGGAGCGCACGAAAGUGCAGGUAGGUCGCUCAGCCACGACGAAAGUCGCGAGAUCU [#SwitchBubble 3 #K4Early] | 137 | 259 | 155 | 238 | 129
37 | UGAUUUAACUGAAGGAGCGGCAAUUGAGAAGGAAAUAUAGUGAUGUUAUAUAAGAGAGAGAGCCAGGUAGGUCGCAGAGGGAGGA [ExArgB.G] | 185 | 131 | 152 | 198 | 118
38 | UGCACCAGUGAUGUUGGUCGGCACCGAGAUACCAGCUGAUCUCUUAGCCCUUGGCAGCUCUUUAUUCGCGUUAUCAGUUUCUUCG [theeternabot_sameState_KL_Theo_A_16] | 428 | 368 | 464 | 416 | 345
39 | UGCAUGCUUAGAGUGAUGUUCUAAGAUGAUACCAGUGCUUUUUUGCACCCUUGGCAGCGUCUGAUUGCAUGCACGUCGAAAGACG | 288 | 287 | 279 | 266 | 289
40 | UGCCCGCGCGAAGGAUAUGAGAGCUUGUCUGUCCAGUGAUGUUGGAGGUUGGUGAUUUGCUAGGCGUCAGAAGGUCGAGCUUAUA [theeternabot_sameState_KL_FMN_B_14] | 192 | 94.4 | 153 | 150 | 133
41 | UGCCGGAAGGCGAGCGCUCCCACUCCGGAAGGAGCGCCCGUAAGGGCAGGUAGGUCGCCGGAGUGAUGUUCCGGUGGAGGGCUCG [#2 Exclusion - Arginine A Attempt #22 (Inspired by Omei)] | 203 | 128 | 193 | 185 | 244
42 | UGGACAUGACUCGAUAAGAGUCAAUGAGAUACCAGUGACGAAAGUCACCCUUGGCAGCUCAACUGCCAGUGAUGUUGGUAGUCCU [#SwitchBubble #StaticStem] | 739 | 424 | 742 | 793 | 566
